Reference: patent publication US20130309233A1 (SORRENTO THERAPEUTICS, published 2013)
Changes are numbered by the printed parent chain.

B1: A6 (antibody, IgG1, V domains shown)
VH: QVQLVQSGAEVKKPGSSVKVSCKASGGTFRNHAFSWVRQAPGQGLEWMGWISAYNGYTHYAEKLQGRVTMTTDTSTSTAYMELRSLRSDDTAVYYCARVSASYNSDWSLHYYYGMDVWGQGTTVTVSS
VL: QSVLTQPPSVSAAPGQEVTISCSGSNSNIGNNYVSWYQQLPGTAPKLLIYDNNERPSGIPDRFSGSKSGTSATLGITGLQTGDEADYYCGTWDSSLSAGVFGGGTKLTVL
notes: also called EGFR-A6; Clone A6
B2: A6-A7 (antibody, V domains shown)
VH: B1 VH with F34Y, S102E, L109V, T123L
VL: B1 VL with N31P, G90S, W92F, G99A
B3: A6-A5 (antibody, V domains shown)
VH: B1 VH with F34Y, E62S, N104A, T123L
VL: B1 VL with N52T, N53A, G90S, G99V, V100L
B4: A6-A3 (antibody, V domains shown)
VH: B1 VH with F34W, H59T, E62S, S105E, T123L
VL: B1 VL with G30E, N31P, D51S, N52T, N53A, G90S, G99V
B5: A6-A4 (antibody, V domains shown)
VH: B1 VH with F34Y, H59T, E62S, T123L
VL: B1 VL with G30E, D51S, W92F, G99V
B6: A6-A1 (antibody, V domains shown)
VH: QVQLVQSGAEVKKPGSSVKVSCKASGGTFRNHAWSWVRQAPGQGLEWMGWISAYNGYTHYASKLQGRVTMTTDTSTSTAYMELRSLRSDDTAVYYCARVSAEYAEDWSLHYYYMDVWGQGTLVTVSS
VL: B1 VL with G90S, G99V
B7: A6-A8 (antibody, V domains shown)
VH: B1 VH with F34Y, H59T, S102E, N104A, S105E, T123L
VL: B1 VL with G30P, D51S, N53S, G90S, G99A, V100L
B8: B5 (antibody, IgG1, V domains shown)
VH: QMQLVQSWAEVKKPGASVKVSCKASAYTFTNYYIHWVRQAPGQGLEWMGIINPSSGATTYAQRLQGRVIMTRDTSTSTVNMELSSLRSEDTAVYYCARSTLWFSEFDYWGQGTLVTVSS
VL: QSVLTQPASVSGSPGQSITISCTGTTSDVGGFNYVSWYQQHPGKVPKLIIFDVSNRPSSVSDRFSGSKSVNTASLTISGLQAEDEADYYCSSYTDSGSYIFGTGTKVTVL
B9: A5 (antibody, IgG1, V domains shown)
VH: EVQLVQSGAEVKKPGASVKVSCKASGGTFSSYAISWVRQAPGQGLEWMGGIIPILGTADYAQKFQGRVTITADESTSTAYMELSSLRSEDTAVYYCARDEIPLEYCTSTSCYHAFDIWGQGTMVTVSS
VL: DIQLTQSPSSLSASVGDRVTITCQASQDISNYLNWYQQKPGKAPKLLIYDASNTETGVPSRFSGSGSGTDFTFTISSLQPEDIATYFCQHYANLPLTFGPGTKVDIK
B10: D2 (antibody, IgG1, V domains shown)
VH: EVQLVESGGGVVQPGRSLRLSCAASGFIFNHYAMHWVRQAPGKGLEWVAHISSDGSYKFYADSVKGRFTVSRDNSDNTVYLQMNSLGPEDTAVYHCARFTEVLYYGADYWGQGTLVTVSS
VL: QSVLTQPPSVSEAPRQRVSISCSGSSSNIGNNAVNWYQQLPGKAPKLLIYFDDLLPSGVSDRFSGSKSGTSASLAISGLQSEDEADYYCAAWDDSLKGYVFGTGTKVTVL
notes: also called EGFR-D2; Clone D2
B11: D2 GB8 (antibody, V domains shown)
VH: B10 VH with N30H, S53P, D76K, V79L, G87R, P88A, H95Y, Y109I
VL: B10 VL with F51Y, D61N
B12: D2GA4 (antibody, V domains shown)
VH: B10 VH with N30H, Y57S, D76K, V79L, G87R, P88A, H95Y, Y109L
VL: B10 VL with N31D, F51Y, L55H
B13: D2GA2 (antibody, V domains shown)
VH: B10 VH with N30H, S53P, Y57S, D76K, V79L, G87R, P88A, H95Y, Y109I
VL: B10 VL
B14: D2GC4 (antibody, V domains shown)
VH: B10 VH with N30H, A33S, Y57S, D76K, V79L, G87R, P88A, H95Y, Y109L
VL: QSVLTQPPSVSEAPRQRVSISCSGSSSNIGNNAVNWYQQLPGKAPKLLIYYDDLLPSGVSDRFSGSKSGTSASLAISGLQSEDEADYYCAAWDDSLKGYVFGTGTKVTV
B15: D2GA5 (antibody, V domains shown)
VH: B10 VH with N30H, S53I, Y57S, D76K, V79L, G87R, P88A, H95Y, Y109L
VL: B10 VL with F51Y
B16: D2GA6 (antibody, V domains shown)
VH: B10 VH with N30H, S53P, Y57S, D76K, V79L, G87R, P88A, H95Y, Y109I
VL: B10 VL with S57Q
B17: D2GG1 (antibody, V domains shown)
VH: B10 VH with I28T, N30S, S53L, Y57S, D76K, V79L, G87R, P88A, H95Y, Y109L
VL: B10 VL with F51Y
B18: D2GC1 (antibody, V domains shown)
VH: B10 VH with N30H, S53P, Y57S, D76K, V79L, G87R, P88A, H95Y, Y109L
VL: B10 VL with F51Y
B19: D6 (antibody, IgG1, V domains shown)
VH: B9 VH with A16S, S17A, Q120R
VL: AIQLTQSPSTLSASVGDRVTITCRASQSISSWLAWYQQKPGKAPKLLIYAASSLQSGVPSRFSGSGSGTDFTLTISSLQPEDFATYYCQQSYSTPLTFGGGTKVEIK
notes: also called EGFR-D6
B20: B4 (antibody, IgG1, V domains shown)
VH: B9 VH with E1Q, A16S, S17A
VL: NIQMTQSPPSLSAFVGDRVTITCQASQAINNYLNWYQQKPGKAPKLLIYDASNLETGVPSRFSGSGSGTDFTFTISSLQPEDNATYYCQQYDKLPLTFGGGTKVEIK
notes: also called EGFR-B4
B21: B1 (antibody, IgG1, V domains shown)
VH: B10 VH with E1Q, E6Q
VL: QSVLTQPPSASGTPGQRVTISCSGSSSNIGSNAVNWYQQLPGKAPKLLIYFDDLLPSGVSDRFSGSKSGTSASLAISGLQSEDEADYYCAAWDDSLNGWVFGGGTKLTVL

Molecular target: T1, EGFR expressed on the surface of cells (A431, A549, MCF7 and other EGFR-expressing cell lines) (human, UniProt P00533 25-1210)
Test: cell-based or functional assay

Binder	IC50 (M), inhibition of EGF-stimulated EGFR auto-phosphorylation in A549 cells [M]
B1	1.1e-09
B2	5.6e-10
B3	1.1e-09
B4	1.1e-09
B5	1.05e-09
B6	5.1e-10
B7	6e-10

Molecular target: T1, EGFR expressed on the surface of cells …
Test: cell-based or functional assay
Remark: another data set of the same source

Binder	ADCC Reporter Bioassay (luciferase, RLU) on A431 target cells, EC50 [nM]	decrease in EGF stimulated receptor phosphorylation assay in EGFR positive cells (A431) [%]
B1	0.06	~10
B8		~10
B9		~10
B10	0.2	

Molecular target: T1, EGFR expressed on the surface of cells …
Test: flow cytometry on A431 cells, blocking of biotinylated human EGF binding (competitor: Human EGF Biotinylated Fluorokine)
Procedure: Cells were finally resuspended in 25 μl FACS Buffer and the median fluorescence intensity in the FL1-H channel was determined using an Intellicyt HTFC flow cytometer. […] Data was analyzed and plotted in Graph Pad Prizm using non-linear regression fit. Data points are shown as the median fluorescence intensity (MFI)+/−Std Error.

Binder	IC50 [nM]
B1	2.06
B10	1.35

Molecular target: T1, EGFR expressed on the surface of cells …
Test: cell-based or functional assay
Remark: another data set of the same source

Binder	IC50 (M), inhibition of EGF-stimulated EGFR auto-phosphorylation in A549 cells [M]
B11	8.6e-10
B12	1.7e-10
B10	1.3e-09
B13	1.8e-10
B14	2.8e-10
B15	2.3e-10
B16	2.2e-10
B17	8.9e-10
B18	2e-10

Molecular target: T1, EGFR expressed on the surface of cells …
Test: binding of purified IgG to EGFR-expressing cell lines

Binder	binding result
B19	binds
B20	binds
B21	binds

Molecular target: T1, EGFR expressed on the surface of cells …
Test: flow cytometry on A431 cells, 12-point titration, PE anti-human IgG
Procedure: (§1) In this example, the experimental procedure was as follows: 50,000 A431 cells were aliquoted into the wells of a 96-well, v-bottom plate in 100 ul FACS Buffer (PBS+2% FBS). […] Cells were spun down, washed 1× with FACS Buffer, and then resuspended in 25 μl of antibody solution in triplicate. […] Cells were further incubated for 0.5 hr and then washed 1× with FACS Buffer. Cells were resuspended in 25 ul FACS Buffer and the median fluorescence intensity in the FL2-H channel was determined using the Intellicyt HTFC flow cytometer.
(§2) Data was analyzed and plotted in Graph Pad Prizm using non-linear regression fit. Data points are shown as the median fluorescence intensity (MFI) of positively labeled cells+/−Std Error.

Binder	EC50 [nM]
B1	1.3
B10	0.28

Molecular target: T1, EGFR expressed on the surface of cells …
Test: flow cytometry on A431 cells (FIG. 2 legend; the same experiment as paragraph 158, printed with another rounding); A431 cells; FIG. 2 legend
Procedure: as §1, §2

Binder	EC50 [nM]
B1	1.29
